The record followed here is publication PMC5153249.

Usually Kd stands for a measure of binding affinity in units of concentration.

Data set [1] concerns the target 43S pre-initiation complex (40S ribosomal subunit, eIF1, eIF1A and eIF2•GDPNP•Met-tRNAi ternary complex); called 48S PIC when AUG-containing model mRNA is added (yeast) (UniProt P32911). Kind of data set: native gel or EMSA; eIF3 (30-500 nM) titrated into 48S PICs: 1 µM uncapped AUG-containing model mRNA, 20 nM 40S, 1 µM eIF1, 1 µM eIF1A, 200 nM eIF2, 1 mM GDPNP•Mg2+, 2 nM [35S]-Met-tRNAi; 26 °C, 2 h; apparent KD from a Hill fit.

For data set [2], the target named is 48S pre-initiation complex (40S, eIF1, eIF1A, ternary complex, AUG-containing model mRNA) (S. cerevisiae) (UniProt P32911). Briefly: other; 48S PIC, + mRNA.
Data set [3] has as its target 43S pre-initiation complex (40S ribosomal subunit, eIF1, eIF1A and eIF2•GDPNP•Met-tRNAi ternary complex); called 48S PIC when AUG-containing model mRNA is added (yeast) (UniProt P32911). Kind of data set: native gel or EMSA; eIF3 (30-500 nM) titrated into 43S PICs without mRNA: 30 nM 40S, 1 µM eIF1, 1 µM eIF1A, 200 nM eIF2, 1 mM GDPNP•Mg2+, 2 nM [35S]-Met-tRNAi; 1X Recon buffer (30 mM HEPES-KOH pH 7.4, 100 mM KOAc pH 7.6, 3 mM Mg(OAc)2, 2 mM DTT); 26 °C, 2 h; apparent KD from a Hill fit, free eIF3 corrected for free …. A general note: Mobility shift assays separate free from complexed probe on a gel.

The target is the same in data set [4]. Briefly: other; 43S PIC, no mRNA.
Data set [5] concerns eIF3 (g KLF) (Saccharomyces cerevisiae). Briefly: EMSA. The conditions noted are these: mean of 2, Met-charged tRNAi, 30 mM HEPES-KOH pH 7.4, 100 mM KOAc, 3 mM Mg(OAc)2, 2 mM DTT, 1 mM GDPNP, 26 C, 2 h, native 4% THEM gel.
The test system of data set [6] is eIF3 (i Q258R) (Saccharomyces cerevisiae). Kind of data set: EMSA. The conditions noted are these: mean of 2, Met-charged tRNAi, 30 mM HEPES-KOH pH 7.4, 100 mM KOAc, 3 mM Mg(OAc)2, 2 mM DTT, 1 mM GDPNP, 26 C, 2 h, native 4% THEM gel.
In data set [7] the test system is eIF3 (a Box6) (Saccharomyces cerevisiae). Kind of data set: EMSA. The conditions noted are these: mean of 2, Met-charged tRNAi, 30 mM HEPES-KOH pH 7.4, 100 mM KOAc, 3 mM Mg(OAc)2, 2 mM DTT, 1 mM GDPNP, 26 C, 2 h, native 4% THEM gel.
Data set [8] relates to eIF3 (c delta60) (Saccharomyces cerevisiae). Kind of data set: EMSA. The conditions noted are these: mean of 2, Met-charged tRNAi, 30 mM HEPES-KOH pH 7.4, 100 mM KOAc, 3 mM Mg(OAc)2, 2 mM DTT, 1 mM GDPNP, 26 C, 2 h, native 4% THEM gel.
In data set [9] the test system is eIF3 (a H725P) (Saccharomyces cerevisiae). Briefly: EMSA. The conditions noted are these: mean of 2; Met-charged tRNAi; uncapped mRNA; 30 mM HEPES-KOH pH 7.4, 100 mM KOAc, 3 mM Mg(OAc)2, 2 mM DTT, 1 mM GDPNP, 26 C, 2 h; native 4% THEM gel.
Data set [10] deals with eIF3 (a delta8) (Saccharomyces cerevisiae). Kind of data set: EMSA. The conditions noted are these: mean of 2, Met-charged tRNAi, 30 mM HEPES-KOH pH 7.4, 100 mM KOAc, 3 mM Mg(OAc)2, 2 mM DTT, 1 mM GDPNP, 26 C, 2 h, native 4% THEM gel.
In data set [11] the test system is eIF3 (a Box37) (Saccharomyces cerevisiae). Briefly: EMSA. The conditions noted are these: mean of 2, Met-charged tRNAi, 30 mM HEPES-KOH pH 7.4, 100 mM KOAc, 3 mM Mg(OAc)2, 2 mM DTT, 1 mM GDPNP, 26 C, 2 h, native 4% THEM gel.
Data set [12] has as its system eIF3 (a R731I) (Saccharomyces cerevisiae). Kind of data set: EMSA. The conditions noted are these: mean of 2; Met-charged tRNAi; uncapped mRNA; 30 mM HEPES-KOH pH 7.4, 100 mM KOAc, 3 mM Mg(OAc)2, 2 mM DTT, 1 mM GDPNP, 26 C, 2 h; native 4% THEM gel.
Data set [13] deals with eIF3 (c GAP85) (Saccharomyces cerevisiae). Briefly: EMSA. The conditions noted are these: mean of 2, Met-charged tRNAi, 30 mM HEPES-KOH pH 7.4, 100 mM KOAc, 3 mM Mg(OAc)2, 2 mM DTT, 1 mM GDPNP, 26 C, 2 h, native 4% THEM gel.
The subject of data set [14] is eIF3 WT (a/b/c/i/g) (Saccharomyces cerevisiae). Briefly: EMSA. The conditions noted are these: Met-charged tRNAi, 30 mM HEPES-KOH pH 7.4, 100 mM KOAc, 3 mM Mg(OAc)2, 2 mM DTT, 1 mM GDPNP, 26 C, 2 h, native 4% THEM gel.
Data set [15] relates to eIF3 a/b/c sub-complex (Saccharomyces cerevisiae). Briefly: EMSA. The conditions noted are these: mean of 2, Met-charged tRNAi, 30 mM HEPES-KOH pH 7.4, 100 mM KOAc, 3 mM Mg(OAc)2, 2 mM DTT, 1 mM GDPNP, 26 C, 2 h, native 4% THEM gel.
Data set [16] deals with eIF3 (c Box12-SPW) (Saccharomyces cerevisiae). Kind of data set: EMSA. The conditions noted are these: mean of 2; Met-charged tRNAi; 30 mM HEPES-KOH pH 7.4, 100 mM KOAc, 3 mM Mg(OAc)2, 2 mM DTT, 1 mM GDPNP, 26 C, 2 h; native 4% THEM gel.

Regarding “eIF3a/b/c sub-complex lacking the i and g subunits (eIF3 purified from eIF3i DDKK cells) (from UniProt P38249 1-964; P06103 1-763; P32497 1-812)”, the values for the fold decrease of apparent affinity against WT eIF3 in [1] and in data set [3] were 3 fold and 2 fold, respectively. The Kd amounted to 0.109 µM in data set [2] and 0.09 µM in [4].
Turning to “48S PIC (40S rRNA + Met-tRNAi + AUG model mRNA)”, the Kd in data set [5] (uncapped mRNA) is 0.0525 µM; in data set [6] (uncapped mRNA), 0.0485 µM; in data set [7] (uncapped mRNA) it was 0.038 µM; in data set [8] (uncapped mRNA), 0.0465 µM; in data set [9], 0.0625 µM; in [10] (uncapped mRNA) it was 0.0885 µM. In addition, the Kd in data set [11] (uncapped mRNA) was determined as 0.0835 µM; in [12], 0.05 µM; in data set [13] (uncapped mRNA) it was 0.038 µM; in data set [14] (mean of 2, uncapped mRNA), 0.0375 µM; in [15] (uncapped mRNA), 0.108 µM.
With 43S PIC (40S rRNA + Met-tRNAi), the Kd in data set [16] is 0.0665 µM; in data set [5] (upper limit), 0.0215 µM; in data set [6] (upper limit), 0.03 µM; in [7], 0.035 µM; in data set [8] (upper limit), 0.024 µM; in data set [10] it was 0.087 µM. The Kd is 0.0595 µM in data set [11]; 0.0265 µM in data set [13] (upper limit); 0.0335 µM in [14] (mean of 43, 24, text <=38 nM, upper limit); 0.0925 µM in data set [15].
